Key:
[1] = test system: FLAG-tagged JNK1(Arg-309-Trp) from the pCMV-FLAG vector, expressed in COS cells
[2] = test system: FLAG-tagged JNK1(Leu-131-Arg) from the pCMV-FLAG vector, expressed in COS cells
[3] = test system: FLAG-tagged JNK1(Tyr-320-His) from the pCMV-FLAG vector, expressed in COS cells
[4] = test system: FLAG-tagged wild-type JNK1 from pCMV-FLAG-JNK1, expressed in COS cells
Chain of FLAG-tagged wild-type JNK1 from pCMV-FLAG-JNK1, expressed in COS cells (chain, as listed by the source): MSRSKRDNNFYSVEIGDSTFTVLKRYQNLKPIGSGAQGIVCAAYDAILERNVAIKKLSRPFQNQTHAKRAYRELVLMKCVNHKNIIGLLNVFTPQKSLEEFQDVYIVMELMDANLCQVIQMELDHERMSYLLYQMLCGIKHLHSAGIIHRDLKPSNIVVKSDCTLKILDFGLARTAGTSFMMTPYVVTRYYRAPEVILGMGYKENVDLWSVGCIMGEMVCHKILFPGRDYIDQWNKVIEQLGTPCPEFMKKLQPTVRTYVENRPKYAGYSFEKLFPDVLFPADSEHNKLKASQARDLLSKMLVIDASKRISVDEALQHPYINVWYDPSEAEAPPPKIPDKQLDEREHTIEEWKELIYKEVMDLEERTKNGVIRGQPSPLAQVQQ

Chain of FLAG-tagged JNK1(Leu-131-Arg) from the pCMV-FLAG vector, expressed in COS cells (chain, as listed by the source L131R): as the sequence (chain, as listed by the source) above, with L131R counted along it
Chain of FLAG-tagged JNK1(Tyr-320-His) from the pCMV-FLAG vector, expressed in COS cells (chain, as listed by the source Y320H): as the sequence (chain, as listed by the source) above, with Y320H counted along it
Chain of FLAG-tagged JNK1(Arg-309-Trp) from the pCMV-FLAG vector, expressed in COS cells (chain, as listed by the source R309W): as the sequence (chain, as listed by the source) above, with R309W counted along it

## GST-MKK4(ED), constitutively active form of MKK4
[1]
  phosphorylation of immunoprecipitated FLAG-JNK by GST-MKK4(ED), in vitro kinase assay with [32P]ATP, autoradiography: the negligible amount of radioactive phosphate incorporated into any of the three JNK mutants was not increased by the presence of active MKK4
[2]
  phosphorylation of immunoprecipitated FLAG-JNK by GST-MKK4(ED), in vitro kinase assay with [32P]ATP, autoradiography: the negligible amount of radioactive phosphate incorporated into any of the three JNK mutants was not increased by the presence of active MKK4
[3]
  phosphorylation of immunoprecipitated FLAG-JNK by GST-MKK4(ED), in vitro kinase assay with [32P]ATP, autoradiography: the negligible amount of radioactive phosphate incorporated into any of the three JNK mutants was not increased by the presence of active MKK4
[4]
  phosphorylation of immunoprecipitated FLAG-JNK by GST-MKK4(ED), in vitro kinase assay with [32P]ATP, autoradiography: The presence of active MKK4 increased the phosphorylation of wildtype JNK relative to the autophosphorylation that occurred in the absence of any upstream activator protein

Source: US20080044815
